Data set [1] relates to QH4 strain. To be noted: SA added to cell cultures at 0-1000 mg/L; QH4 cells.
Source text: All data points are reported as mean±s.d. from three independent experiments. […] All data points are reported as mean±s.d. from two independent experiments.
Data set [2] is described as follows: In vitro SMO enzyme assay. The format is biochemical, P. putida DOT-T1E. Particulars: purified His-tagged enzyme 0.97 nM. The procedure: (A) Kinetic parameters of the SMO. The Km and Vmax values were estimated with OriginPro8 through non-linear regression of the Michaelis-Menten equation. The protein concentration [E] of the SMO in the reaction systems was 0.97 nM. The kcat value was calculated according to the formula kcat=Vmax/[E]. […] (B) Conversion of SA to MA using the wild type E. coli strain carrying pZE-NC. […] Error bars are defined as s.d.
To express and purify the enzyme, E. coli BL21 Star (DE3) was transformed with the expression plasmid pET-NahG. A fresh transformant was inoculated in 3 ml LB medium containing 100 μg/ml of ampicillin and grown aerobically at 37° C. Overnight cultures were inoculated into 50 ml fresh LB medium and left to grow at 37° C. till OD600 reached 0.6 and then induced at 30° C. with 0.5 mM IPTG for another 3 h. Cells were then harvested and lysed by French Press. The recombinant protein with an N-terminal multi-histidine tag was purified using His-Spin protein miniprep kit (ZYMO […]). The enzyme concentration was measured using BCA kit (Pierce Chemicals). The standard enzyme assay was performed by making an assay mixture containing 500 μM NADH, 10 μM FAD, 0.97 nM purified enzyme, and SA as the substrate. The final volume was adjusted to 1 ml with Kpi buffer (20 mM, pH=7.0). […] The reaction rates were calculated by measuring the formation of catechol via HPLC. […]

Data set [3] in a line: Screening SMOs in vivo (conversion of SA to catechol by whole cells). Particulars: E. coli BW25113 carrying pZE12-luc expression vector, 2 mM SA, 37° C., catechol formation rate. The format is cell-based. The procedure: To evaluate the activity of enzymes converting SA to catechol, E. coli BW25113 was transformed with the expression vectors pZE-ppbenABCD, pZE-paantABC, pZE-pfantABC and pZE-NahG, separately. The resultant transformants were inoculated in 3 ml LB liquid medium containing 100 μg/ml of ampicillin and grown aerobically at 37° C. The overnight cultures were inoculated into 20 ml fresh LB medium and left to grow at 37° C. till OD600 reached 0.6 and then induced with 0.25 mM of IPTG at 37° C. for additional 3 h. Then the cells were harvested, and re-suspended in M9Y medium (OD600=2.1-2.7). SA was added into the cell suspension to a final concentration of 2 mM. The flasks were incubated with shaking at 37° C. for 10 min for the SMO encoded by nahG^opt and 1 h for ppBenABCD, paAntABC, and pfAntABC. Samples were taken by removing cell pellets and the product (catechol) concentrations were measured with HPLC. The in vivo activity was expressed as μM/min/OD.
Following the reconstitution and optimization of an SA biosynthetic pathway, our subsequent effort was focused on constructing the SA degradation pathway. SMO catalyzes the first enzymatic step of SA degradation, and thus it is of great importance to have an efficient SMO available for the pathway assembly. […] A putative SMO (encoded by nahG) was identified from the genome of P. putida DOT-T1E. […]

The values below come from patent US9719113B2 (priority 2014, dated 2017).

Take `O=C(O)c1ccccc1O` [SA, salicylic acid]: the “SA concentration that completely inhibited the cell proliferation” value in data set [1] was 1000 mg/L.

B1: nahG^opt: salicylate 1-monoxygenase (SMO) from P. putida DOT-T1E, encoded by codon-optimized gene nahG^opt (protein, listed as Escherichia coli)
chain: MQNSTSALNVSIIGGGIAGVALALDLCRHAHLNVQLFEAAPAFGEVGAGVSFGANAVRAIAGLGIAEPYGKIADSNPAPWQDIWFEWRNGRDAKYLGCSVAEGVGQSSVHRADFLDALASQLPDGIAQFGKRAQRVEQDGEQVRVTFTDGSEHRCDLLIGADGIKSSIRDHVLQGLNQPLASPRFSGTCAYRGLIDSQQLREAYRARGVDEHLIDVPQMYLGLDGHILTFPVKQGRLINVVAFISDRSQPNPVWPSDTPWVRNATQAEMLAAFEGWDDAAQVLLECIPTPSLWALHDLAELPGYVHGRVGLIGDAAHAMLPHQGAGAGQGLEDAWLLARLLEDPKVLDKRPQAVLDAYDAVRRPRACRVQRTSFEAGELYEFRDPAVLADEERLGKVLAERFDWLWNHDMQEDLLQARELLGLRAQAA
B1: the Km (commonly the concentration of substrate that gives half-maximal velocity) in data set [2] (SA 0 to 100 μM, 500 μM NADH, 10 μM FAD, pH 7.0, 37° C.) amounted to 4.37 µM. The kcat (in general, the maximal rate divided by the concentration of active sites) in data set [2] (substrate SA, kcat=Vmax/[E]) was determined as 96.56 s⁻¹. Further, the In vivo activity is 54.78 ± 1.65 μM/min/OD in data set [3] and 54.78 μM/min/OD in data set [3] (listed as SMO encoded by nahG^opt).
